Data published in patent EP2014310A2 (Dyax Corporation, dated 2009).

Biological target: T1, human KDR-Fc fusion (R&D Systems #357-KD-050) (human, UniProt P35968 20-764)
T1 construct: bought
Test: phage binding screen on KDR-Fc; class legend in paragraph 246

T1 sequence (P35968 20-764): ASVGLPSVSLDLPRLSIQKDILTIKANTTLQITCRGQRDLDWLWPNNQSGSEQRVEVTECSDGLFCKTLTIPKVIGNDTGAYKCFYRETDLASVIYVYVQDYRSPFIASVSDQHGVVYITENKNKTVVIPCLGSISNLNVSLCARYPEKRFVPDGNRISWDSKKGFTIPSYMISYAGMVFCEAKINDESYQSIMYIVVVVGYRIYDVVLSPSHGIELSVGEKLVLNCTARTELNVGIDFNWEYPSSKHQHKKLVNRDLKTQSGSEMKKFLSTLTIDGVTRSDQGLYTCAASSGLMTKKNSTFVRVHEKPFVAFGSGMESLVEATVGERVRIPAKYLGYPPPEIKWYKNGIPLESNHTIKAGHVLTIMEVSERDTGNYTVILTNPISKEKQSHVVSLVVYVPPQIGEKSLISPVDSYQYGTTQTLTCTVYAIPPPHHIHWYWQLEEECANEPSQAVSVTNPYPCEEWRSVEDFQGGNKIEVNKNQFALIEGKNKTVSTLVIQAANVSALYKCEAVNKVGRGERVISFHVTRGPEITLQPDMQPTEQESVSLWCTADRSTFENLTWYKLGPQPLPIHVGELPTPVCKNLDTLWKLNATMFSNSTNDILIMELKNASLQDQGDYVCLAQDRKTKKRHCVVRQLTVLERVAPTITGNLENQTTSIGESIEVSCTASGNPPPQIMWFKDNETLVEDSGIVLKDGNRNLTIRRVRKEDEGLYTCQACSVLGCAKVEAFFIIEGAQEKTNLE

Row | Binder | binding result
1 | PDWCAADWYYCYIT [phage isolate PDWCAADWYYCYIT] | binds
2 | TGNCQEDWYYCWYF [phage isolate TGNCQEDWYYCWYF] | binds
3 | GVECYKHSGMCRSW [phage isolate GVECYKHSGMCRSW] | binds
4 | PNTCETFDLYCWWI [phage isolate PNTCETFDLYCWWI] | binds
5 | WVECFMDTGACYTF [phage isolate WVECFMDTGACYTF] | binds
6 | SVECFMDTGACYTF [phage isolate SVECFMDTGACYTF] | binds
7 | WEWCPIDAWECIML [phage isolate WEWCPIDAWECIML] | binds
8 | RNWCEEDWYYCFIT [phage isolate RNWCEEDWYYCFIT] | binds
9 | SNWCEEDWYYCYIT [phage isolate SNWCEEDWYYCYIT] | binds
10 | VNWCEEDWYYCWIT [phage isolate VNWCEEDWYYCWIT] | binds
11 | GITCYSATGKCQMW [phage isolate GITCYSATGKCQMW] | binds
12 | WVECWWKSGQCYEF [phage isolate WVECWWKSGQCYEF] | binds
13 | WVECWWKYGQCYEF [phage isolate WVECWWKYGQCYEF] | binds
14 | LIECYAHTGLCFDF [phage isolate LIECYAHTGLCFDF] | binds
15 | PEWCEVDWYYCWLL [phage isolate PEWCEVDWYYCWLL] | binds
16 | WTECHYATGKCHSF [phage isolate WTECHYATGKCHSF] | binds
17 | HYECWYPEGKCYFY [phage isolate HYECWYPEGKCYFY] | binds
18 | WLECYAEFGHCYNF [phage isolate WLECYAEFGHCYNF] | binds
19 | WLECYTEFGHCYNF [phage isolate WLECYTEFGHCYNF] | binds
20 | HWWCAFQPQECEYW [phage isolate HWWCAFQPQECEYW] | binds
21 | KELCEDDWYYCYLM [phage isolate KELCEDDWYYCYLM] | binds
22 | WYWCHHIGMYCDGF [phage isolate WYWCHHIGMYCDGF] | binds

Row | Binder | binding result
23 | PTWCEDDWYYCWLF [phage isolate PTWCEDDWYYCWLF] | binds
24 | GITCYSDTGKCFSF [phage isolate GITCYSDTGKCFSF] | binds
25 | WIQCDRKAGRCSRG [phage isolate WIQCDRKAGRCSRG] | binds
26 | GINCYPATGKCQMG [phage isolate GINCYPATGKCQMG] | binds
27 | WIQCDMETGLCTHG [phage isolate WIQCDMETGLCTHG] | binds
28 | WVQCASDTGKCIMG [phage isolate WVQCASDTGKCIMG] | binds
29 | HWECYSDTGKCWFF [phage isolate HWECYSDTGKCWFF] | binds
30 | WIQCNSITGHCTSG [phage isolate WIQCNSITGHCTSG] | binds
31 | GEQCSNLAVACCST [phage isolate GEQCSNLAVACCST] | binds
32 | AVTCWALTGHCVEE [phage isolate AVTCWALTGHCVEE] | binds
33 | DFNCKMIDGFCLLK [phage isolate DFNCKMIDGFCLLK] | binds
34 | TITCWMDTGHCMHE [phage isolate TITCWMDTGHCMHE] | binds
35 | SKWCEQDWYYCWLL [phage isolate SKWCEQDWYYCWLL] | binds
36 | LNICKEDWYYCFLL [phage isolate LNICKEDWYYCFLL] | binds
37 | GVWCDMVTGWCYHG [phage isolate GVWCDMVTGWCYHG] | binds
38 | PDWCEEDWYYCWIT [phage isolate PDWCEEDWYYCWIT] | binds
39 | WIECYHPDGICYHF [phage isolate WIECYHPDGICYHF] | binds
40 | VWECAKTFPFCHWF [phage isolate VWECAKTFPFCHWF] | binds
41 | WIECHYKTGHCIHS [phage isolate WIECHYKTGHCIHS] | binds
42 | YVDCYYDTGRCYHQ [phage isolate YVDCYYDTGRCYHQ] | binds
43 | LVMCISPEGYCYEI [phage isolate LVMCISPEGYCYEI] | binds
44 | WIICDGNLGWCWEG [phage isolate WIICDGNLGWCWEG] | binds

Biological target: T1, human KDR-Fc fusion (R&D Systems …)
Test: as above
Remark: another data set of the same source

Row | Binder | binding result
45 | FGECWEYFWGGEFCLRV [phage isolate FGECWEYFWGGEFCLRV] | binds
46 | NWECGWSNMFQKEFCARP [phage isolate NWECGWSNMFQKEFCARP] | binds
47 | SSVCFEYSWGGEVCFRY [phage isolate SSVCFEYSWGGEVCFRY] | binds
48 | GGWCQLVDHSWWWCGDS [phage isolate GGWCQLVDHSWWWCGDS] | binds
49 | SRVCWEYSWGGEVCYRV [phage isolate SRVCWEYSWGGEVCYRV] | binds
50 | YGVCWEYSWGGEVCLRF [phage isolate YGVCWEYSWGGEVCLRF] | binds
51 | DNWCEIVVEKGQWFCYGS [phage isolate DNWCEIVVEKGQWFCYGS] | binds
52 | GWACAKWPWGGEICQPS [phage isolate GWACAKWPWGGEICQPS] | binds
53 | YPWCHELSDSVTRFCVPW [phage isolate YPWCHELSDSVTRFCVPW] | binds
54 | YPWCHEHSDSVTRFCVPW [phage isolate YPWCHEHSDSVTRFCVPW] | binds
55 | ASTCVFHDHPYFPMCQDN [phage isolate ASTCVFHDHPYFPMCQDN] | binds
56 | SRVCWEDSWGGEVCFRY [phage isolate SRVCWEDSWGGEVCFRY] | binds
57 | PDTCTMWGDSGRWYCFPA [phage isolate PDTCTMWGDSGRWYCFPA] | binds
58 | WRICWESSWGGEVCIGH [phage isolate WRICWESSWGGEVCIGH] | binds
59 | GSWCEMRQDVGKWNCFSD [phage isolate GSWCEMRQDVGKWNCFSD] | binds
60 | YPGCYETSLSGVWFCADG [phage isolate YPGCYETSLSGVWFCADG] | binds
61 | WWECKREEYRNTTWCAWA [phage isolate WWECKREEYRNTTWCAWA] | binds
62 | NWKCEYTQGYDYTECVYL [phage isolate NWKCEYTQGYDYTECVYL] | binds
63 | FSVCWEYSWGGEVCLRQ [phage isolate FSVCWEYSWGGEVCLRQ] | binds
64 | DHMCRSPDYQDHVFCMYW [phage isolate DHMCRSPDYQDHVFCMYW] | binds
65 | SGYCEFESDTGRWFCSSW [phage isolate SGYCEFESDTGRWFCSSW] | binds
66 | PAQCWESNYQGIFFCDNP [phage isolate PAQCWESNYQGIFFCDNP] | binds
67 | SRVCWEYSWGGQICLGY [phage isolate SRVCWEYSWGGQICLGY] | binds
68 | GWCQMDAQGIWSCWAD [phage isolate GWCQMDAQGIWSCWAD] | binds
69 | PPLCYFVGTQEWHHCNPF [phage isolate PPLCYFVGTQEWHHCNPF] | binds
